Assay results: PMC4192059 (Molecular microbiology, 2014)

Target: T1, PPE41 (M. tuberculosis), chain of the crystallized complex (M. tuberculosis, UniProt Q79FE1 1-194)
T1 sequence: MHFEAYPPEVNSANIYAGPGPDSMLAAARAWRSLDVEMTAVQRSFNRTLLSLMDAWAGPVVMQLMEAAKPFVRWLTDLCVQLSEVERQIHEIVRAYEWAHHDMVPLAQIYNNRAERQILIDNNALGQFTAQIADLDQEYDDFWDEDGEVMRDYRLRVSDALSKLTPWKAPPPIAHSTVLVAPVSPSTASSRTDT
Experiment: crystal structure

B1: PE25 (M. tuberculosis), chain of the crystallized complex (natural protein)
chain: MSFVITNPEALTVAATEVRRIRDRAIQSDAQVAPMTTAVRPPAADLVSEKAATFLVEYARKYRQTIAAAAVVLEEFAHALTTGADKYATAEADNIKTFS
B1: binds.
